Molecular target: T1, mini-cellulose-binding protein A (mCbpA), P38058
T1 chain: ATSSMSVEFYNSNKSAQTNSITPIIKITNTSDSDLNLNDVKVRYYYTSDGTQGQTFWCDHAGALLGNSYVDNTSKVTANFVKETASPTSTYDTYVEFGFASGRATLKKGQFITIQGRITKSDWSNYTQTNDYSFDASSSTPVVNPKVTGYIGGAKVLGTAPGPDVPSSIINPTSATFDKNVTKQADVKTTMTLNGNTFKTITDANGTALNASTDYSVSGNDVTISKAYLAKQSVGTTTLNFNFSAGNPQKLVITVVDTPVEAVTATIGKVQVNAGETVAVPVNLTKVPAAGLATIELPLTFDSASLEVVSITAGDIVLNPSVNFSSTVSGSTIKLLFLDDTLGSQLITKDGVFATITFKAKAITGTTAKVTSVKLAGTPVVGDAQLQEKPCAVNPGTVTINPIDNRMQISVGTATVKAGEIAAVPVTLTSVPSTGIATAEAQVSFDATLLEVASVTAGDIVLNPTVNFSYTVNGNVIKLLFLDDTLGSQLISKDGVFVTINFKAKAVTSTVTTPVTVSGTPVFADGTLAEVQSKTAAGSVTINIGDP

B1: dockerin-fused chimeric beta-agarase AgaB (AgaB-Doc) (protein)
chain: GDNSKFDSATDLPVEQEQEQETEQEGEPEESSEQDLVEEVDWKDIPVPADAGPNMKWEFQEISDNFEYEAPADNKGSEFLEKWDDFYHNAWAGPGLTEWKRDRSYVADGELKMWATRKPGSDKINMGCITSKTRVVYPVYIEARAKVMNSTLASDVWLLSADDTQEIDILEAYGADYSESAGKDHSYFSKKVHISHHVFIRDPFQDYQPKDAGSWFEDGTVWNKEFHRFGVYWRDPWHLEYYIDGVLVRTVSGKDIIDPKHFTNTTDPGNTEIDTRTGLNKEMDIIINTEDQTWRSSPASGLQSNTYTPTDNELSNIENNTFGVDWIRIYKPVEKVNKDGKVNAIDYAVLKSILLGTNTNVDLSVSDMNKDGKVNALDLAVLKKMLLS
degradation activity using purified agar as a substrate: the degradation activity increased in the order of agarase, agarase-expansin, and agarase-expansin-mCbpA

From US20200190501
